Assay results reported in article PMC11303406.

How the values were obtained:
[1] = system: SlSWIBb (Solanum lycopersicum); test: MST; details: MST: 50 mM Tris-HCl pH 8.0, 150 mM NaCl, 0.05% Tween-20, 25 C
[2] = system: SlSWIBb-K86A (Solanum lycopersicum); test: MST; details: MST: 50 mM Tris-HCl pH 8.0, 150 mM NaCl, 0.05% Tween-20, 25 C
[3] = system: SlSWIBb-L44A (Solanum lycopersicum); test: MST; details: MST: 50 mM Tris-HCl pH 8.0, 150 mM NaCl, 0.05% Tween-20, 25 C
[4] = system: SlSWIBb-R6A (Solanum lycopersicum); test: MST; details: MST: 50 mM Tris-HCl pH 8.0, 150 mM NaCl, 0.05% Tween-20, 25 C
[5] = target: T1, SlGATA29 (Solanum lycopersicum, UniProt UPI0002BCBC7B 34-326); test: EMSA
T1 sequence: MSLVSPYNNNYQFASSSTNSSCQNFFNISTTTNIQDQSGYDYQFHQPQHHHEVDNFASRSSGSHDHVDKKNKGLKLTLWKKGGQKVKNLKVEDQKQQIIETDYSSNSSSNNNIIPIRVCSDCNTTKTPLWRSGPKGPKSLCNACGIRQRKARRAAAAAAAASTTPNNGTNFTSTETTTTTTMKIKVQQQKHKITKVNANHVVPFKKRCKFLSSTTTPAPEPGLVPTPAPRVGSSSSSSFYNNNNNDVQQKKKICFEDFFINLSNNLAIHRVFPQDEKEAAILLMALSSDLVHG

[6] = target: SlSWIBa-allmut (Solanum lycopersicum, UniProt A0A3Q7HR54 1-124, R6A;L46A;K88A); test: MST
[7] = target: SlSWIBa (Solanum lycopersicum, UniProt A0A3Q7HR54 1-124); test: EMSA

Molecule: GAATATATGAACATATTAAAAGTGACATTATAAGAAATGATAAAATTCAAAATTAAGGTG (double strand) [60bp InDel, Cy5]
- Kd [1]: 35 nM
- Kd [2]: 42 nM
- Kd [3]: 47 nM
- Kd [4]: 40 nM

B1: probe-60bp (dsDNA)
DNA 1: GAATATATGAACATATTAAAAGTGACATTATAAGAAATGATAAAATTCAAAATTAAGGTG
DNA 2: CACCTTAATTTTGAATTTTATCATTTCTTATAATGTCACTTTTAATATGTTCATATATTC
- binding result [5]: binds

B2: 60bp InDel, Cy5 (dsDNA)
DNA 1: B1 DNA 1
DNA 2: B1 DNA 2
- binding result [6]: no binding

B3: 30bpSWIB-mu4 (dsDNA)
DNA 1: TAAGAAATGATAAAATTCAAAATTAAGGTG
DNA 2: CACCTTAATTTTGAATTTTATCATTTCTTA
- binding result [7]: no binding
